The target in experiment [1] is T1, PCSK9 D374Y mutant protein inserted with biotin receiving peptide BP15 and His-tag: PCSK9-D374Y-BP15-His6 (human, UniProt Q8NBP7 153-692; A8T644 31-152, biotin on the BP15 biotin receiving peptide).
T1 construct: also called PCSK9-Y; mutant PCSK9
As to the kind of experiment: competition ELISA, LDLR-FC coated, biotin PCSK9-Y + antibody. Here is the method: The blocking ability of PCSK9 antibodies according to the present invention for the binding of LDLR-FC and PCSK9-Y (mutant PCSK9, SEQ ID NO: 6) was tested by measuring the amount of PCSK9-Y binding to LDLR in the presence of the antibodies.
(§1) LDLR-FC (produced in-house, with sequence of SEQ ID NO: 8) was diluted to 2 μg/ml with phosphate buffer and was added into the 96-well ELISA plate, at 4° C. overnight. The plate was washed and then blocked with Tris buffer (including 0.9 mM CaCl₂, 0.05% Tween 20 and 5% skim milk) at 37° C. for 2 hours. Then the plate was washed and 100 μl/well of mixture of biotin-labeled mutant PCSK9 (diluted to 1 μg/ml with Tris buffer containing 0.9 mM CaCl₂, 0.05% Tween 20 and 1% skim milk) and antibody samples (diluted with Tris buffer containing 0.9 mM CaCl₂, 0.05% Tween 20 and 1% skim milk) was added and incubated at 37° C. for 1 hour. Then the plate was washed again and horseradish peroxidase-streptavidin (sigma, CAT #S2438) was added and incubated at 37° C. for 1 hour. Then the plate was washed and tetramethyl brenzidine solution was added for development. Finally, the stop buffer was added and OD450 value was measured on the Microplate reader, then IC50 value was calculated.
Background: ELISA stands for enzyme-linked immunosorbent assay.

The target in experiment [2] is T1, PCSK9 D374Y mutant protein inserted …. The experiment is described as above. As to the method: (§2) Different back mutations were selected for combination (Table 3) after CDR grafting. The designed humanized sequences were fully-gene synthesized and heavy and light chains were combined with each other for mammalian expression (Table 4). After purification of the protein, the blocking activity test was performed similarly to that for chimeric antibodies (see test 3 and 4 for the method and the results are shown in Table 5). Some cloned proteins were selected and were determined for dissociation constants by Surface Plasmon resonance (SPR) (Biacore X100, GE, see test 5). The sample to be tested was captured by the Amine-Coupling Anti-Fc pAb (GE) on the CM5 chip (GE). PCSK9 (SEQ ID NO: 1) or PCSK9-Y (SEQ ID NO: 4) was the mobile phase, working buffer was 1×HBS-EP⁺, pH 7.4, regeneration bu0ffer was 3 M MgCl₂.
LDLR-FC (produced in-house, with sequence of SEQ ID NO: 8) was diluted to 2 μg/ml with phosphate buffer and was added into the 96-well ELISA plate, at 4° C. overnight. The plate was washed and then blocked with Tris buffer (including 0.9 mM CaCl₂, 0.05% Tween 20 and 5% skim milk) at 37° C. for 2 hours. […] Finally, the stop buffer was added and OD450 value was measured on the Microplate reader, then IC50 value was calculated.
This is another data set of the same source.

The target of experiment [3] is T2, PCSK9 with His-tag: PCSK9-His6 (human, UniProt Q8NBP7 153-692; A8T644 31-152).
T2 construct: also called huPCSK9; human PCSK9 antigen
As to the kind of experiment: SPR Biacore X100, antibody captured by anti-Fc pAb on CM5, PCSK9 mobile phase. Here is the method: as §2
(In general: In SPR one partner is held on a chip, and binding of the other changes the refractive index at the surface.)

The target in experiment [4] is T3, PCSK9-D374Y mutant protein with His-tag: PCSK9-D374Y-His6 (human, UniProt Q8NBP7 153-692; A8T644 31-152).
T3 construct: also called PCSK9-Y; PCSK9-Y antigen
As to the kind of experiment: SPR Biacore X100, antibody captured by anti-Fc pAb on CM5, PCSK9-Y mobile phase. Here is the method:
as §2

Experiment [5] deals with T4, PCSK9 protein inserted with biotin receiving peptide BP15 and His-tag: PCSK9-BP15-His6 (human, UniProt Q8NBP7 153-692; A8T644 31-152, biotin on the BP15 biotin receiving peptide (labeled during the expression)).
T4 construct: also called WT PCSK9; PCSK9 WT
Briefly: competition ELISA, LDLR-FC coated, biotin PCSK9 + antibody. Here is the method:
The blocking ability of PCSK9 antibodies according to the present invention for the binding of LDLR-FC (produced in-house, with sequence of SEQ ID NO: 8) and PCSK9 (SEQ ID NO: 5) was tested by measuring the amount of PCSK9 binding to LDLR in the presence of the antibodies.
as §1, with “LDLR-FC” for “LDLR-FC (produced in-house, with sequence of SEQ ID NO: 8)”, “to 5” for “to 2”, “plate, kept” for “plate,”, “biotin-labeled” for “biotin-labeled mutant”, “to 2” for “to 1”

Experiment [6] addresses T4, PCSK9 protein inserted with biotin …. Briefly: ELISA, biotin PCSK9 on streptavidin plate. Here is the method:
The binding ability of anti-PCSK9 antibodies of the present invention to PCSK9 protein (WT PCSK9, SEQ ID NO: 5) was detected by measuring the amounts of antibodies binding to PCSK9 immobilized on the ELISA plate.
(§3) Streptavidin (sigma, CAT #S4762) was diluted to 2 μg/ml with PBS and was added into a 96-well ELISA plate, at 4° C. for overnight. The plate was washed and then was blocked with Tris buffer (including 0.9 mM CaCl₂, 0.05% Tween 20 and 5% skim milk) at 37° C. for 2 hours. Then the plate was washed again and 100 μl/well of biotin-labeled PCSK9 (produced in-house, diluted with Tris buffer containing 0.9 mM CaCl₂, 0.05% Tween 20 and 1% skim milk) was added and incubated at 37° C. for 1 hour. After the wash step various concentrations of diluted PCSK9 antibody samples was added to the plate and incubated at 37° C. for 1 hour. […] Then the plate was washed and tetramethyl brenzidine solution was added for development. Finally, the stop buffer was added and the OD450 value was measured on the Microplate reader, and then EC50 was calculated.

For experiment [7], the target named is T1, PCSK9 D374Y mutant protein inserted …. Briefly: ELISA, biotin PCSK9-Y on streptavidin plate. As to the method: The binding ability of anti-PCSK9 antibodies of the present invention to PCSK9-Y protein (mutant PCSK9, SEQ ID NO: 6) was detected by measuring the amounts of antibodies binding to PCSK9-Y immobilized on the ELISA plate.
as §3, with “hours. The” for “hours. Then the”, “washed” for “washed again”, “biotin-labeled PCSK9-Y” for “biotin-labeled PCSK9”, “wash step,” for “wash step”, “samples were” for “samples was”

The target of experiment [8] is T4, PCSK9 protein inserted with biotin …. As to the kind of experiment: competition ELISA, LDLR-FC coated, biotin PCSK9 + antibody. As to the method:
as §2
LDLR-FC was diluted to 5 μg/ml with phosphate buffer and was added into the 96-well ELISA plate, kept at 4° C. overnight. The plate was washed and then blocked with Tris buffer (including 0.9 mM CaCl₂, 0.05% Tween 20 and 5% skim milk) at 37° C. for 2 hours. […] Finally, the stop buffer was added and OD450 value was measured on the Microplate reader, then IC50 value was calculated.
This is another data set of the same source.

Read-outs that look alike come from different tables or passages of the source.

A word on the IC50: it is the concentration needed to halve the response being measured. The term Kd denotes the concentration at which binding is half-saturated. The term koff denotes the rate constant with which the complex falls apart. A word on the kon: it is the rate constant with which the complex forms. What is called EC50 is the concentration that produces a half-maximal response. Lower therefore signals higher potency in that assay.

B1: humanized antibody h011-3 (antibody, V domains shown)
VH: QVQLVQSGAEVKKPGASVKVSCKASGYTFTGYTIHWVRQAPGQGLEWMGYINPSSTYTKFNQKFKDRVTMTRDTSISTAYMELSRLRSDDTAVYYCARERIYSNYWFFDVWGQGTTVTVSS
VL: DIVMTQSPSSLSASVGDRVTITCKASQNVYTAVAWYQQKPGKSPKLLIYSASNRYTGVPSRFSGSGSGTDFTLTISSLQPEDFATYFCQQYSSYPYTFGGGTKVEIK
notes: h011_VH.1 with h011_VL.1B
B1: the IC50 in experiment [1] was 5.49 µg/mL; in experiment [2] it was 5.13 µg/mL; in experiment [5], 0.681 µg/mL; in experiment [8] it was 0.205 µg/mL. Besides, the Kd turned out to be 0.263 nM in experiment [3] and 34.5 nM in experiment [4]. For the same molecule, the koff was found to be 1.88e-05 s⁻¹ in experiment [3] and 0.00578 s⁻¹ in experiment [4]. Besides, the kon came out at 71300 M⁻¹ s⁻¹ in experiment [3] and 168000 M⁻¹ s⁻¹ in experiment [4]. In addition, the concentration for a half-maximal effect (EC50) in experiment [6] worked out at 0.00719 µg/mL; in experiment [7], 1.78 µg/mL.
